Results on three molecules are retold here after patent publication US20220251194A1 (Merck Sharp & Dohme, published 2022).

Where a chain is given by its changes, count along the chain named. Numbers in names are those of the source.

A word on the Kd: it is a measure of binding affinity in units of concentration.

Experiment [1] has as its target T1, LAG3-His (66AKO), [VEGF leader]-LAG3_H-[His9G] (human, UniProt P18627 23-450).
T1 construct: Expressed with a VEGF leader
T1 sequence (looked up): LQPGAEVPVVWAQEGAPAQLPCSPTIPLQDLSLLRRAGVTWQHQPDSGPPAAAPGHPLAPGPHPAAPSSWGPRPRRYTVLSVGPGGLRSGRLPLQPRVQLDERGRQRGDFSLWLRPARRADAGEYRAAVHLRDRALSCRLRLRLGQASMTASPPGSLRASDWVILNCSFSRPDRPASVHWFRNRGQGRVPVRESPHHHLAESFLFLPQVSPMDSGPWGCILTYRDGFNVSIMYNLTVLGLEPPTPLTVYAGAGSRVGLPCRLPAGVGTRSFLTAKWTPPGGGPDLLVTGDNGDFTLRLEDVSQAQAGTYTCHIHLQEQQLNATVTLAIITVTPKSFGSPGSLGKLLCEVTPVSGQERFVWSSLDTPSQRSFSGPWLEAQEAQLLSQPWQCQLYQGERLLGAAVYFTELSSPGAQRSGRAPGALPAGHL
Nature of the experiment: SPR sequential antigen injections on captured TsAb; this antigen injected 1st. As to the method:
(§1) Sample pre-mixes were injected to cover all six sequential combinations of the three antigens. Injection of pre-mixes in appropriate order (e.g., pre-mix 1->4->7, premix 2->6->7, premix 3->5->7) helped to maintain antigen activities from first and second injections and near saturation of the occupied sites in case of notable dissociation. On a Biacore T200, the first two injections were made using the dual inject mode and the third was made using normal injection mode (the difference is extra time between second and third injections). It is possible that antigens themselves could self-associate or interact with one another in the pre-mixes but for simplicity of interpretation, we assumed that to be unlikely or insignificant.
(§2) Each subsequent upward shift in the signal upon premix injection indicates binding of an antigen to an unoccupied site. Typical % BC for a fully occupied site can range from ˜70% to ˜120% due to matrix effects, MW variations (e.g., glycosylation), fast dissociation, nonspecific binding, reagent quality (e.g., aggregation), etc. The % BC indicated in the figures show good overall binding capacity for the three antigens with somewhat higher % BC for the first binder.

Experiment [2] addresses T2, Human PD1 (50AFR), [VEGF leader]-Sino-Bio-PD-1_H-[His9G] (human, UniProt Q15116 25-167).
T2 construct: Expressed with a VEGF leader; also called PD-1-His (50AFR)
Nature of the experiment: SPR sequential antigen injections on captured TsAb; this antigen injected 2nd. How it is done:
as §1, §2

Experiment [3] concerns the target T3, TIGIT-His (87AGX), [SLAM Leader]-TIGIT_H-[His9G] (human, UniProt Q495A1 22-141).
T3 construct: Expressed with a SLAM leader
T3 sequence (looked up): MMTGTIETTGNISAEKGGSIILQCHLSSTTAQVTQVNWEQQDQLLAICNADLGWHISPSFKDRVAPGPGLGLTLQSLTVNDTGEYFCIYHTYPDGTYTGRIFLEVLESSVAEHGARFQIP
The experiment is described as above. How it is done:
as §1, §2

The target of experiment [4] is T2, Human PD1 (50AFR), [VEGF …. Description: SPR (Biacore T200 or 4000), antibody captured via anti-human Fc, antigen as analyte. How it is done:
(§3) Binding affinities were measured using a Biacore T200 or Biacore 4000 biosensor (GE Healthcare, Chicago, Ill.). The following running buffer, 10 mM HEPES, 150 mM NaCl, 0.05% v/v Surfactant P20, 3 mM EDTA (GE Healthcare, BR100669, Chicago, Ill.), was used for immobilization, sample dilution and data collection. All experiments were performed at 25° C. Antigen binding to antibodies captured via an anti-human Fc antibody was measured using a Series S Sensor Chip CM5 (GE Healthcare, 29149603, Chicago, Ill.). An anti-human Fc antibody was immobilized on all surfaces of the chip according to the instructions in the Human Antibody Capture Kit (GE Healthcare, BR100839, Chicago, Ill.) and the Amine Coupling Kit (GE Healthcare, BR100633, Chicago, Ill.). […] After the antigen injections the dissociation of the interaction was monitored for 15 minutes. Between binding cycles the antibody and antigen were removed from the chip with a 30 second injection of 3 M MgCl₂.
(§4) The data were processed and fit using Biacore T200 Evaluation Software version 2.0 or Biacore 4000 Evaluation Software version 1.1 (GE Healthcare, Chicago, Ill.). The data were “double referenced” by subtracting the response from a negative control flowcell and subtracting the response from a buffer injection or the average response from two buffer injections. The data were then fit with the ‘1:1 Binding’ model to determine the association rate constant, kₐ (M⁻¹s⁻¹, where “M” equals molar and “s” equals seconds) and the dissociation rate constant, kd (s⁻¹). These rate constants were used to calculate the equilibrium dissociation constant, KD (M)=[…].

The target of the next experiment is T4, human LAG-3 (60AXE) (human, UniProt P18627 23-450, limits assumed).
T4 construct: Lot 60AXE is not described further
T4 sequence (looked up): T1 sequence (looked up)
Described as above. How it is done:
as §3, §4

For a further experiment, the target named is T5, human TIGIT (94AGV) (human, UniProt Q495A1 22-141, limits assumed).
T5 construct: Lot 94AGV is not described further
T5 sequence (looked up): T3 sequence (looked up)
The description is as above. How it is done: as §3, §4

Experiment [5] addresses T6, recombinant human or cyno PD-1 (immobilized onto CM5 chip, Example 1) (human or cyno ( which was …, UniProt Q15116 25-167, limits assumed)).
T6 construct: also called antigen
Nature of the experiment: SPR (Biacore T200), PD-1 immobilized on CM5 chip, Fab as analyte; lower end of the printed range 2.80-2.90. How it is done:
(§5) Immobilization of recombinant human or cyno PD-1 onto CM5 chip: A CM5 sensor chip was activated in FC2 by 7-min. injection (10 μl/min.) of freshly prepared 1:1 50 mM NHS: 200 mM EDC. PD-1 at a concentration of 0.2 μg/ml in 10 mM sodium acetate buffer pH 5.0 was injected onto the activated chip at 5 μl/min. (HBS-EP running buffer: 10 mM HEPES, 150 mM NaCl, 3.4 mM EDTA, 0.005% surfactant P20, pH 7.4) for 120 seconds. The remaining active coupling sites were blocked with 7 min. injection of 1M ethanolamine at 10 μl/min.
(§6) Binding kinetics measurement: Various concentrations of the Fabs were injected with a flow rate of 30 μl/min for 180 seconds(s) during the association phase. The dissociation of bound antibody was monitored by flowing HBS-EP buffer over the chip surface for 600 seconds. At the end of each cycle, the sensor surfaces were regenerated by injecting regeneration buffer (10 mM glycine buffer with pH 1.7) for 180 seconds. After sensograms were corrected for signals from a reference flow, kinetics were calculated with BIACORE T 200 evaluation software ver.1.0 (Biacore, GE, USA).
Background: SPR reads the build-up and loss of mass on a sensor chip optically.

The target in experiment [6] is T6, recombinant human or cyno PD-1 …. Nature of the experiment: SPR (Biacore), Fab against PD-1. How it is done:
as §5, §6

T6 sequence (Q15116 25-167 limits assumed): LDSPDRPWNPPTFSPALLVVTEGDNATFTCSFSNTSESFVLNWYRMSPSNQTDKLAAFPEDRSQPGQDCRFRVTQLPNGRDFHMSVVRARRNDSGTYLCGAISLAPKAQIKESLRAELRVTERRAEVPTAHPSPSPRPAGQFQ
T2 sequence (Q15116 25-167): as the sequence (Q15116 25-167 limits assumed) above

B1: Anti-PD-1/LAG-3/TIGIT trispecific antibody (TsAb) (Lot 83BCN or 51AVW) (other)
heavy 1: EVQLVQSGAEVKKPGASVKVSCKASGYTFTSYYLYWVRQAPGQGLEWIGGVNPSNAGTNFNEKFKSRVTLTVDTSISTAYMELSRLRSDDTAVYYCTRRLSHYDGGFDYWGQGTTVTVSSASTKGPSVFPLAPSSKSTSGGTAALGCEVTDYFPEPVTVSWNSGALTSGVHTFPAVLESSGLYSLLSVVTVPSSSLGTQTYICNVNHKPSNTKVDKKVEPKSCDKTHTCPPCPAPEAAGGPSVFLFPPKPKDTLMISRTPEVTCVVVSVSHEDPEVKFNWYVDGVEVHNAKTKPREEQYNSTYRVVSVLTVLHQDWLNGKEYKCKVSNKALPAPIEKTISKAKGQPREPQVYVYPPSRDELTKNQVSLTCLVKGFYPSDIAVEWESNGQPENNYKTTPPVLDSDGSFALVSKLTVDKSRWQQGNVFSCSVMHEALHNHYTQKSLSLSPGGGGSGGGSGGGSGGGSDIQMTQSPSSLSASVGDRVTITCRASEHIYSYLSWYQQKPGKVPKLLIYNAKTLAEGVPSRFSGSGSGTDFTLTISSLQPEDVATYYCQHHFGSPLTFGQGTRLEIKGGSSRSSSSGGGGSGGGGSGSEVQLVQSGAEVKKPGSSVKVSCKASGYTFSSYVMHWVRQAPGQGLEWIGYIDPYNDGAKYAQKFQGRVTLTSDKSTSTAYMELSSLRSEDTAVYYCARGGPYGWYFDVWGQGTTVTVSS
light 1: DIVMTQTPLSLSVTPGQPASISCRASKSVSTSGFSYLHWYLQKPGQPPQLLIFLSKYRSSGVPDRFSGSGSGTDFTLKISRVEAEDVGVYYCSQAYHLPLTFGQGTKLEIKRTVAAPSVFIFPPSDERLKSGTASVVCLLNNFYPREAKVQWKVDNALQSGNSQESVTEQDSKDSTYSLSSRLTLSKADYEKHKVYACEVTHQGLSSPVTKSFNRGEC
heavy 2: QMQLVQSGPEVKKPGTSVKVSCKASGYTFTDYNVDWVRQARGQRLEWIGDINPNDGGTIYAQKFQERVTITVDKSTSTAYMELSSLRSEDTAVYYCARNYRWFGAMDHWGQGTTVTVSSASTKGPSVFPLAPSSKSTSGGTAALGCLVKDYFPEPVTVSWNSGALTSGVHTFPAVLQSSGLYKLSSVVTVPSSSLGTQTYICNVNHKPSNTKVDKKVEPKSCDKTHTCPPCPAPEAAGGPSVFLFPPKPKDTLMISRTPEVTCVVVSVSHEDPEVKFNWYVDGVEVHNAKTKPREEQYNSTYRVVSVLTVLHQDWLNGKEYKCKVSNKALPAPIEKTISKAKGQPREPQVYVLPPSRDELTKNQVSLLCLVKGFYPSDIAVEWESNGQPENNYLTWPPVLDSDGSFFLYSKLTVDKSRWQQGNVFSCSVMHEALHNHYTQKSLSLSPGGGGSGGGSGGGSGGGSDIQMTQSPSSLSASVGDRVTITCRASEHIYSYLSWYQQKPGKVPKLLIYNAKTLAEGVPSRFSGSGSGTDFTLTISSLQPEDVATYYCQHHFGSPLTFGQGTRLEIKGGSSRSSSSGGGGSGGGGSGSEVQLVQSGAEVKKPGSSVKVSCKASGYTFSSYVMHWVRQAPGQGLEWIGYIDPYNDGAKYAQKFQGRVTLTSDKSTSTAYMELSSLRSEDTAVYYCARGGPYGWYFDVWGQGTTVTVSS
light 2: DIVMTQTPLSLSVTPGQPASISCKASQSLDYEGDSDMNWYLQKPGQPPQLLIYGASNLESGVPDRFSGSGSGTDFTLKISRVEAEDVGVYYCQQSTEDPRTFGGGTKVEIKRTVAAPSVFIFPPSDEELKSGTATVVCLLNNFYPREAKVQWKVDNALQSGNSQESVTEQDSKDSTYSLSSYLELSKADYEKHKVYACEVTHQGLSSPVTKSFNRGEC
notes: Trispecific heterodimeric IgG1 / kappa; It has one site for PD1, one for LAG3 and two for TIGIT; also called Hz x Hu [PD-1]; [TIGIT]; [LAG3]; TsAb; Anti-human PD1/TIGIT/LAG3 TsAb
In the case of B1, the “% BC (estimated % binding capacity)” value in experiment [1] is 102%; in experiment [2], 74%; in experiment [3] it was 90%. Moreover, the results for the Kd (in experiment [4]; with human LAG-3 (60AXE); with human TIGIT (94AGV)) were 0.15 nM, 0.0015 nM and 0.64 nM, respectively.

B2: Fab001 (humanized 08A Fab with S61N glycosylation site correction) (Fab, V domains shown)
VH: EVQLVQSGAEVKKPGASVKVSCKASGYTFTSYYLYWVRQAPGQGLEWIGGVNPSNGGTNFNEKFKSRVTLTVDTSISTAYMELSRLRSDDTAVYYCTRRDSNYDGGFDYWGQGTTVTVSS
VL: DIVMTQTPLSLSVTPGQPASISCRASKSVSTSGFSYLHWYLQKPGQPPQLLIFLASNLESGVPDRFSGSGSGTDFTLKISRVEAEDVGVYYCQHSWELPLTFGQGTKLEIKR
notes: Fab with IgG4 CH1 and kappa light chain
On to B2, for which, in experiment [5], the Kd lay in the range of 0.28 to 0.29 nM.

B3: Fab 004 (Fab, V domains shown)
VH: B2 VH with D100L, N102H
VL: B2 VL
notes: also called 3G9; H3G9
For B3, the “fold improvement in KD over 08A” value in experiment [6] amounted to 2 fold.
